From the supplement of paper PMC9170038

Test system: K4 kissing-loop RNA reporter
Assay: apparent KD of K4 kissing-loop reporter; higher = weaker reporter binding
Conditions: Eterna round: R107; input ligand: FMN 200 uM
Description: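 RNA-MaP round R107: designed RNA switches with theophylline, tryptophan, arginine or FMN aptamers are transcribed on-chip within common flanks. They are titrated with a labelled K4 kissing-loop RNA reporter in RNA-MaP buffer (100 mM Tris pH 7.5, 80 mM KCl, 4 mM MgCl2), without ligand or with the indicated ligand. Median apparent KD per design.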
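Further: bound reporter read as fluorescence of individual clusters on recovered sequencing chips by microscopy, with normalized cluster intensities fitted with a binding model.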

Compared with “AGUGUUAGGUUAGAUACCAGCCGUCUAUGGAUAAUCCUCAGACCGCCAGUGAUGUUGGCAGGCCCUUGGCAGCUAACAGAACAGA [Reinonor]”, “CGUAGUUGGGCGGCCGCCACUUGAAAAGCUUUGCCAAAGGCAGAGCUCUAGAGUGAUGUUCUGGCAAGGACCGGGUCCAACUACA [#03 K4 Tryptophan B Same State]” is 4.3-fold higher in “apparent KD of K4 kissing-loop reporter” value: 202 nM for the first, 869 nM for the second.

Compared with “CCAUGAGGAUAAGAUGAUAUCAUAACAGAAGGAGCGAGUGAUAACUCAGGUAGGUCGCUGAAUUUAUCGAGUGAUGUUCGAUGAA [Same State Arginine A GF11]”, “UCCUGCAAUCGCCCACGAAAGUGGAUUGAUACCAGAGUCGAAAGACUCCCUUGGCAGCGAGUGAUGUUCGAAGCAGGUAAAUAAA” is 1.7-fold higher in “apparent KD of K4 kissing-loop reporter” value: 194 nM for the first, 326 nM for the second.

“AACCACUCGUUACAUCACUAUCGAGUGGAACGAGGACCGGUACGGCCGCCACUCGGUAACAAGCAGUGAUGUUGCUUGUAAGAAU [KL-SSTryp-A (BrourdMod)2 #dotplot2 strengthened]” and “AGCAGUGAUGUUGCUCAAUUUACAGGUGAUACCAGAGGUCAGUCUCUCCCUUGGCAGCACUUCAUACGAUGAUGUUUUAUCGGCC [theeternabot_sameState_KL_Theo_A_50]” are within 1.5-fold of each other in “apparent KD of K4 kissing-loop reporter” value: 298 nM for the first, 374 nM for the second.

Compared with “AUGGCACGACUUGCCCACAAUGUCUAUGCCCGAGGACCGGUACGGCCGCCACUCGGAUGCCGUGUCUUAUUAGUGAUGUUGAUAC [theeternabot_sameState_KL_Trp_A_4]”, “CGGAUGUAGUGAUGUUAUAUUAGAUGUAGACGAGGACCGGUACGGCCGCCACUCGUGAUGGCUGCUAGCACGUUUCGAUGUUUGC [ExTryptoA.Cq]” is 1.9-fold higher in “apparent KD of K4 kissing-loop reporter” value: 355 nM for the first, 669 nM for the second.

Going from “UUACGGUCCUCGGCCGCCACUCAUAGUGAUGUUAUGCUGCCUGAAGGCACCGGACCUGGAUAUCAGAGGACCGGGAGGCCAUUCG [theeternabot_exclusion_KL_Trp_B_6]” to “AUUAAUUUCAGAGGAUAUCGUAUUUAUAUUAUAUCUUUCCAUAUUUGCAGUGAUGUUGCAUUAAUUCGAGAAGGCUGAUUUAUAA [JR_Nu_ExcFMNB_Sub024]”, the “apparent KD of K4 kissing-loop reporter” value falls from 793 nM to 86.1 nM (9.2-fold).

“GGGCCGCGCGCGGCCGCCACUCAGUGAUGUUGGGUGAGCUUUGCUGUGCGUGCUGUUUCGUGACGGAGGACCGGGCGCGCGGCCU [BDazzled 2]” and “AUGCGCGCGGCGGCCGCCACUCGCAUGAGAGUGAUGUUCUCGCCGGGCCCGGAAGGGCCCGGUGUGAGGACCGGGCCGGGCUGCG [#2 Same State - Tryptophan B Attempt #17 (HarryS)]” are within 1.5-fold of each other in “apparent KD of K4 kissing-loop reporter” value: 129 nM for the first, 121 nM for the second.

“CAAUGAGUAUAAGAUGAUAUCAUCACAGAAGGAGCGAGUGAUAACUCAGGUAGGUCGCUGAAUUUAUCGAGUGAUGUUCGAUAGA [whbob_SS_Arginine_A_sa118]” and “AGACUACUGAUAGGAUAUAACAUACUAGCUCGUAUACCAAAGGUAUACGAGCACCUUCUAGUGAUGUUAGAAGGGUCGGUAGUCA [Omei KL FMN B Exc B v3]” are within 1.5-fold of each other in “apparent KD of K4 kissing-loop reporter” value: 207 nM for the first, 301 nM for the second.

“GCGUGCAAGUCAUGAUGCCCUAUCAGGACUAAGGAUAUAGCGUGACCUAGAAGGUAGCUAGUGAUGUUGGCUGACAUGCUACUGC [theeternabot_exclusion_KL_FMN_A_49]” and “ACACGCAACUAUAGACCAGUGAUGUUGGAACGAGGACCGGUACGGCCGCCACUCGAGCGGACGAUCUACGCCUCUUAUGCUAACG [theeternabot_exclusion_KL_Trp_A_15]” are the same in “apparent KD of K4 kissing-loop reporter” value: 482 nM for the first, 482 nM for the second.

Compared with “AUUCGCUCCACUGAUACCAGUCAUCGAGCAAGAUGCUAAGCCAGUGAUGUUGGCAUGAAUGACCCUUGGCAGCAGUACACUAAGG [Theo B SS t7]”, “UGGCGAGUGAUGUUCGUUGUUGUAGUGUGUCGAGGACCGGUACGGCCGCCACUCGAGUUGGUUGUUGUUGUUGCUGUUGUUGCUG [#03 K4 Tryptophan A Same State]” is 3-fold higher in “apparent KD of K4 kissing-loop reporter” value: 65.4 nM for the first, 196 nM for the second.

First: CGGCGCGGCGCGGCCGCCACUGCGCCUGGGUGCUCGCCGAGUGAUGUUCGUCGGCGGUUGGGUGGCAGGACCGGGUGCCGGCCCG [BDazzled - #18 SS Tryptophan B]
Second: UGUUUUUUUUUGAUGUUUGUUGUAAAAUGGCAGGAUAUCGUAGAGGCGAGAAGGGCUUUUAUGCGUUAUGAGUGAUGUUUGUAGG [vevvmullin]
The “apparent KD of K4 kissing-loop reporter” value of the first is 2.2-fold higher: 930 nM for the first, 418 nM for the second.

Going from “AGGUCCGAGCCCGGAAGGGCUCGGACCUGUUAGGAUAUGACGUUAUUCAGAAGGGAUGGGUGGAGUGAUGUUCCACCCGAGAGGG [#2 Same State - FMN A Attempt #17 (HarryS)]” to “AAGAAGGUCAAAGACCUUCGUGCACCUGAUACCAGUCGCGAAAGCGACCCUUGGCAGCAGGGCAGUGAUGUUGCCAAGUGCACAA [Omei KL Theo A SS A v1]”, the “apparent KD of K4 kissing-loop reporter” value rises from 106 nM to 782 nM (7.4-fold).

Compared with “AUUCUAUUGUGAAGGAGCGCGUAUAGUAGUGAUGUUACUAUAAUAAUAGAUAUUUAAUUCUCGCAGGUAGGUCGCACAAUAUAUA [JR_Nu_ExcArginiB_Sub025]”, “AGGUCACAACUACAGUGAUGUUGUGGAGAGCAGGAUAUGCAGAAAUGCAGAAGGGCUCGCUCUCUAGUGACCGAUCAAAAGAUCA [Omei KL FMN A SS A v9]” is 13-fold higher in “apparent KD of K4 kissing-loop reporter” value: 102 nM for the first, 1360 nM for the second.

Going from “CCUAUCUCAUACGAUACCAGUCCGAGUGAUGUUCGAAAAUAAAUAAAUUUGCCAUAUAAUGACCCUUGGCAGCGUAUGGGAUAGG [Ex Theophylline B K4 11]” to “CAGAAGCAUUCGGCCGCCACUCCAGUGAUGUUGGAGCGGGAGGGCCUUAAACCUCGAGGCUGCUGGAGGACCGGGAAUGUUGAGG [Beerso]”, the “apparent KD of K4 kissing-loop reporter” value falls from 354 nM to 166 nM (2.1-fold).

“GCCGUACGCAUGGAUACCAGAUGGCACUAUAAUCUACCAGAGUGAUGUUCUGGCCUGCCCAUCCCUUGGCAGCCAUGCGUACGGC” and “UGUGUUUACCUGACUCAGUGAUGUUGAGAAGGAGCGUGCGAAGGCACAGGUAGGUCGCUCAACCUAAAUUCAGGUGAGCACUAAA” are within 1.5-fold of each other in “apparent KD of K4 kissing-loop reporter” value: 293 nM for the first, 249 nM for the second.

Going from “CUCGAGUGAUGUUCGAUUAUGUAUACAGAUACCAGUGAAUUUUAACACCCUUGGCAGCUGGUAGAAUCUUUGUAAUUUUAACUAG [JR_ExcTheophyA_Sub002]” to “UUGUUUGGUUGAGAGGUUGGGCGAGAUGAUACCAGUAGAGAAGAGUACCCUUGGCAGCAUAAGAAAGAUAUAGUGAUGUUGUAUA [SSTheophA.P]”, the “apparent KD of K4 kissing-loop reporter” value rises from 162 nM to 422 nM (2.6-fold).

“GGAGUGAUGUUCCAUUUUUAAAUCUCCGAUACCAGUAUGGAAACAUACCCUUGGCAGCGGUAAACCGCAGAUUAGGAAACUAGUC [Theophylline A K4 1]” and “AAAUAGAUCAGUCAACCAGUGAUGUUGGAAGGAGCGUGCGAAAGCACAGGUAGGUCGCCAGAAUAAAAGUGGCUGAUCAAAAUAA” are within 1.5-fold of each other in “apparent KD of K4 kissing-loop reporter” value: 496 nM for the first, 357 nM for the second.

Compared with “UGAUACCAGACGGCCGCCACUCCCGCAGGUCAAAGACCUGCGAAGAAGGUUCUUUAGUGAUGUUGGAGGACCGGGUCUGGUAUCU [FiskerMod 21 - Jieux - Exclusion - Tryptophan B]”, “AAGCCAGAGAUUGCUGCGGGUUCCAGAGAUACCAGCCGUAUUGAAGGCCCUUGGCAGCUCGAGUGAUGUUCGAGCCGUCUCCGGC [Onte]” is 6.6-fold lower in “apparent KD of K4 kissing-loop reporter” value: 735 nM for the first, 111 nM for the second.

Compared with “AAAAUAAGCCAGUGAUGUUGGUACCCAGAUACCAGCGACGAAAGUCGCCCUUGGCAGCUGUGGACGUACAAAAUAAGUACGUCCU”, “AGGUAGUCCCUUGUUGUCAUCGAAGAUGAACGAGGACCGGUACGGCCGCCACUCGGAGUGAUGUUCCGAUGGCUGCAAAAUAAAA [MatMod 23 - Jieux - Exclusion - Tryptophan A]” is 4-fold lower in “apparent KD of K4 kissing-loop reporter” value: 434 nM for the first, 108 nM for the second.

First: AAUAAAAUCACGGCCGCCACUGAUUUUUUUAUUAGGAGUGAUGUUCCUAUGACUAUAUUAUUUAACAGGACCGGGUGAAUAUUUA [JR_SSTryptoB_Sub023]
Second: UAGAGGAGACUCUAAUUCCUUAAGUCCGAAGGAGCGACCCAAUGGUCAGGUAGGUCGCGGACAAUCCUAGUGAUGUUAGGAUCUG [Arg A SS t5a]
The “apparent KD of K4 kissing-loop reporter” value of the first is 1.8-fold lower: 79.6 nM for the first, 141 nM for the second.

“UAACGCCACUAAGAUACCAGACAUACAGAUCGGAUCUCCUAAAGAGAGUGAUGUUCUCUAGUCCCUUGGCAGCUUCUGGACUCCC [theeternabot_sameState_KL_Theo_B_9]” and “GGCACUUUUGCUUGGAACCGUCAAGCUCUUUAGGAUAUCUGGAAACAGAGAAGGAAAGACCUACAGAGUGAUGUUCUGCGUGCCU” are within 1.5-fold of each other in “apparent KD of K4 kissing-loop reporter” value: 296 nM for the first, 332 nM for the second.

First: UUAGGAGUGGAAGGAUAUCCUGGUGUGGGUGAUGUUAGUGAUGUUGAAAGUGCAGUGAUGUUGCGCGGAGAAGGUCCGGUGUUGA [BDazzled - #7 - Exc. FMN B]
Second: UGAUACCAGACUGAUACCAGCAAGUGAUGUUUGUUGAUCUAAAGCAGUCAAAGACUGCCUUGCCCUUGGCAGCAGUCUGGUAUCU [TheoBX 27 #SwitchBubble #StaticStem]
The “apparent KD of K4 kissing-loop reporter” value of the first is 4.9-fold lower: 180 nM for the first, 886 nM for the second.

For “CCUAUCUGUUACGAUACCAGUCAAAGAUAUUUUAUCAAUGCCCUCACCGAGUGAUGUUCGGACCCUUGGCAGCGUCUGGGAUAGG [pnnbmullin]”, the “apparent KD of K4 kissing-loop reporter” value was 187 nM.

Same assay, conditions: Eterna round: R107; input ligand: arginine 13.2 mM

First: AGUGUUAGGUUAGAUACCAGCCGUCUAUGGAUAAUCCUCAGACCGCCAGUGAUGUUGGCAGGCCCUUGGCAGCUAACAGAACAGA [Reinonor]
Second: CGUAGUUGGGCGGCCGCCACUUGAAAAGCUUUGCCAAAGGCAGAGCUCUAGAGUGAUGUUCUGGCAAGGACCGGGUCCAACUACA [#03 K4 Tryptophan B Same State]
The “apparent KD of K4 kissing-loop reporter” value of the first is 3.3-fold lower: 218 nM for the first, 719 nM for the second.

Going from “CCAUGAGGAUAAGAUGAUAUCAUAACAGAAGGAGCGAGUGAUAACUCAGGUAGGUCGCUGAAUUUAUCGAGUGAUGUUCGAUGAA [Same State Arginine A GF11]” to “UCCUGCAAUCGCCCACGAAAGUGGAUUGAUACCAGAGUCGAAAGACUCCCUUGGCAGCGAGUGAUGUUCGAAGCAGGUAAAUAAA”, the “apparent KD of K4 kissing-loop reporter” value rises from 164 nM to 503 nM (3.1-fold).

“AACCACUCGUUACAUCACUAUCGAGUGGAACGAGGACCGGUACGGCCGCCACUCGGUAACAAGCAGUGAUGUUGCUUGUAAGAAU [KL-SSTryp-A (BrourdMod)2 #dotplot2 strengthened]” and “AGCAGUGAUGUUGCUCAAUUUACAGGUGAUACCAGAGGUCAGUCUCUCCCUUGGCAGCACUUCAUACGAUGAUGUUUUAUCGGCC [theeternabot_sameState_KL_Theo_A_50]” are within 1.5-fold of each other in “apparent KD of K4 kissing-loop reporter” value: 252 nM for the first, 321 nM for the second.

First: AUGGCACGACUUGCCCACAAUGUCUAUGCCCGAGGACCGGUACGGCCGCCACUCGGAUGCCGUGUCUUAUUAGUGAUGUUGAUAC [theeternabot_sameState_KL_Trp_A_4]
Second: CGGAUGUAGUGAUGUUAUAUUAGAUGUAGACGAGGACCGGUACGGCCGCCACUCGUGAUGGCUGCUAGCACGUUUCGAUGUUUGC [ExTryptoA.Cq]
The “apparent KD of K4 kissing-loop reporter” value of the first is 2.4-fold lower: 204 nM for the first, 483 nM for the second.

First: UUACGGUCCUCGGCCGCCACUCAUAGUGAUGUUAUGCUGCCUGAAGGCACCGGACCUGGAUAUCAGAGGACCGGGAGGCCAUUCG [theeternabot_exclusion_KL_Trp_B_6]
Second: AUUAAUUUCAGAGGAUAUCGUAUUUAUAUUAUAUCUUUCCAUAUUUGCAGUGAUGUUGCAUUAAUUCGAGAAGGCUGAUUUAUAA [JR_Nu_ExcFMNB_Sub024]
The “apparent KD of K4 kissing-loop reporter” value of the first is 6.5-fold higher: 590 nM for the first, 91 nM for the second.
